We go through five substances from article PMC5936033.

The series deals with GST-VP1 (Chicken anaemia virus (strain CAU269/7?)). Nature of the series: EMSA (agarose). The settings on record: 50 mM Tris-HCl pH 7.5, 120 mM KCl, 1.0 mM EDTA, 0.5 mM DTT, 30 mg/ml BSA (so in the source); 100 ng DNA in 20 ul, 37 C, 30 min (Results: 1 h); 0.8% agarose/TAE. Text …. A general note: In EMSA bound probe runs differently from free probe, usually more slowly.

With linear pcDNA3.1 (EcoRI), the percent unbound DNA (% unbound DNA) is 84.7.
Under pCAV, supercoiled (form II) stands 82.6.
Substance M13mp18 ssDNA yielded a percent unbound DNA (% unbound DNA) of 46.5.
For the substance CAV genome minus-strand linear ssDNA, the percent unbound DNA (% unbound DNA) was 53.3.
As for pCAV, open circular (form I), the percent unbound DNA (% unbound DNA) is 59.6.
